Source: publication PMC7215194 (Heliyon, 2020)

Target: dansyl-calmodulin (recombinant rat CaM, dansylated) (rat, UniProt P0DP29 1-149, dansylated with dansyl chloride)
Assay: other fluorescence titration

B1: wild-type peptide corresponding to the CaM-binding domain of human Grb7 (residues 243-256), non-myristoylated (peptide)
peptide: RKLWKRFFCFLRRS
binding result: binds
